First the molecules themselves.
T1: Human CD137 shuffle 5 (amino acids 48-88 replaced by African elephant CD137) (human, amino acids 48-88 from African …, UniProt Q07011 24-255)
T1 construct: also called shuffle construct 5
T1 chain: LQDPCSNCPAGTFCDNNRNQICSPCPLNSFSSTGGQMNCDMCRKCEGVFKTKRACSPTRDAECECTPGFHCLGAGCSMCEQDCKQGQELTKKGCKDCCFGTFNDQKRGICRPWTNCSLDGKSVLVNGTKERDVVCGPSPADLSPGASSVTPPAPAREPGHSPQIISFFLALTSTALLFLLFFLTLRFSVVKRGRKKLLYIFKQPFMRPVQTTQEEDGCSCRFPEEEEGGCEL

T2: Human CD137 shuffle 4 (amino acids 89-114 replaced by wild boar CD137) (human, amino acids 89-114 from wild boar, UniProt Q07011 24-255)
T2 construct: also called shuffle construct 4
T2 chain: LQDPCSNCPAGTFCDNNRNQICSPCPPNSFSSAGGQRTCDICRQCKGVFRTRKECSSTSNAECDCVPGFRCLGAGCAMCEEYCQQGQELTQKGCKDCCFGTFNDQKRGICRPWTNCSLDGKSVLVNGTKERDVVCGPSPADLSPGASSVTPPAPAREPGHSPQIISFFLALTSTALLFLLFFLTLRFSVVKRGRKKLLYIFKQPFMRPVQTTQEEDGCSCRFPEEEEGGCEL

T3: Human CD137 shuffle 3 (amino acids 115-138 replaced by wild boar CD137) (human, amino acids 115-138 from wild …, UniProt Q07011 24-255)
T3 construct: also called shuffle construct 3
T3 chain: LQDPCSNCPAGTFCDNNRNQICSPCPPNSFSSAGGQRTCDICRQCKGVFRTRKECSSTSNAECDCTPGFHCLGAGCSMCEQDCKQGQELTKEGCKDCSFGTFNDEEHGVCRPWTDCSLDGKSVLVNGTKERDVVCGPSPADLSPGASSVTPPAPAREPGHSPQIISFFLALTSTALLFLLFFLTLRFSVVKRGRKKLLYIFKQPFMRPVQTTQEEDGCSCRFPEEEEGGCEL

T4: Human CD137 shuffle 2 (amino acids 139-161 replaced by wild boar CD137) (human, amino acids 139-161 from wild …, UniProt Q07011 24-255)
T4 construct: also called shuffle construct 2
T4 chain: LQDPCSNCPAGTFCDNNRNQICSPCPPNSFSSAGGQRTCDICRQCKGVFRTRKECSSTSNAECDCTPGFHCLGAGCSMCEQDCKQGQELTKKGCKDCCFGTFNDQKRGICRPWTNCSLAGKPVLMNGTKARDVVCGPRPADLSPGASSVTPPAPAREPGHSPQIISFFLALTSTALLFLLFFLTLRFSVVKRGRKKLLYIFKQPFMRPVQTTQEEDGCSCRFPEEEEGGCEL

T5: Human CD137 shuffle 1 (amino acids 162-186 replaced by wild boar CD137) (human, amino acids 162-186 from wild …, UniProt Q07011 24-255)
T5 construct: also called shuffle construct 1
T5 chain: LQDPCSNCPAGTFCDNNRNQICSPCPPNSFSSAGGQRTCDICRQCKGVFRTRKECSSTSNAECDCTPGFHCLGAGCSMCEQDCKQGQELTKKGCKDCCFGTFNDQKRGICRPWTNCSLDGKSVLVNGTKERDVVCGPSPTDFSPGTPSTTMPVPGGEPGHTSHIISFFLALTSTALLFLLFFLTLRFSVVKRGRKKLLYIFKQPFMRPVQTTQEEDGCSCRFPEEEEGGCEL

B1: CD137 antibody clone 002 (rabbit) (antibody, human IgG1, kappa, V domains shown)
VH: QSVEESGGRLVTPGTPLTLTCTVSGFSLTYYAVTWVRQPPGKGLEWIGVIYDNGATAFATWAKGRFTMSKNSTTVALKVTSPTTEDTATYFCARSANNAWSTYSNLWGQGTLVTVSS
VL: DIVMTQTPSSVSAAVGGTVTINCQASEDISSYLSWYQQKLGQPPKLLIYKASTLESGVPSRFKGSGSGTEYTLTISDLESDDAATYYCQSYYSGSISGYGFVFGGGTGVVVKR
notes: also called Clone 2; CD137 clone 002
B2: CD137 antibody clone 010 (rabbit) (antibody, human IgG1, kappa, V domains shown)
VH: QSVEESGGRLVTPGTPLTLTCTVSGFSLSTYAMIWVRQAPGKGLEWIGVVYDNGYISHATWVKGRFTISKTSTTVGLEITSPTTEDTATYFCARSADGSWSTYFNLWGQGTLVTVSS
VL: DIVMTQTPASVEAAVGGTVTIKCQASESISNYLAWYQQKPGQPPKLLIYKASTLASGVSSRFKGSGSGTEFTLTISDLESADAATYYCQTNYCCSSSDNGFAFGGGTEVVVKR
notes: also called Clone 10; CD137 clone 010
B3: CD137 antibody clone 006 (rabbit) (antibody, human IgG1, kappa, V domains shown)
VH: QSVEESGGRLVTPGTPLTLTCTVSGFSLSSYAMSWVRQAPGKGLEWIGIISTSGITYYASWAKGRFTISKTSTMVDLKITSPTTEDTATYFCARLNGFDDYVRYFDFWGLGTLVTVSS
VL: AIELTQTPSSVSAAVGGTVTINCQASESIASNLAWYQQKPGQPPKLLIYAASYLASGVPSRFKGSGSGTEYTLTISGVQSADAATYYCQSAFYVSSSDNAFGGGTEVVVKR
notes: also called Clone 6; CD137 clone 006
B4: CD137 antibody clone 009 (rabbit) (antibody, human IgG1, kappa, V domains shown)
VH: QSLEESGGRLVTPGTPLTLTCTVSGFSLNDYWMSWVRQAPGKGLEWIGYIDVGGSLYYASWAKGRFTISRTSTTVDLKMTSLTTEDTATYFCARGGLTYGFDLWGPGTLVTVSS
VL: DIVMTQTPASVSEPVGGTVTINCQASEDISSYLAWYQQKPGQRPKRLIYGASDLASGVPSRFSASGSGTEYALTISDLESADAATYYCHYYATISGLGVAFGGGTEVVVKR
notes: also called Clone 9; CD137 clone 009
B5: CD137 antibody clone 003 (rabbit) (antibody, human IgG1, kappa, V domains shown)
VH: QSVEESGGRLVTPGTPLTLTCTASGFTISSYHMIWVRQAPGEGLEWIGDIYGGTATTDYASWAKGRFTISKTSTTVDLKMTSLTTEDTATYFCARARYSGGSYANYVFNLWGQGTLVTVSS
VL: DIVMTQTPASVEAAVGGTVTIKCQASQSISSYLAWYQQKPGQPPKLLIYRTSTLESGVPSRFKGSGSGTEFTLTISDLESADAATYYCQGYDWSSSNRYDNTFGGGTEVVVKR
notes: also called Clone 3; CD137 clone 003
B6: CD137 antibody clone 008 (rabbit) (antibody, human IgG1, kappa, V domains shown)
VH: QSLEESGGRLVTPGTPLTLTCTASGFSLSSYDMSWVRQAPGKGLEYIGYISSSGNTYYASWAKSRFTISKTSTTVDLKITSPTTEDTATYFCAREGDYWDFNLWGPGTLVTVSS
VL: AQVLTQTPSSVSAAVGGTVTINCQASQSISNLLAWYQQKPGQRPRLLIYRASTLASGVPSRFKGSGSGTEFTLTISDLESEDAATYYCAGGFPGLDTGATFGGGTEAVVTR
notes: also called Clone 8; CD137 clone 008
B7: CD137 antibody clone 007 (rabbit) (antibody, human IgG1, kappa, V domains shown)
VH: QSLEESGGRLVTPGTPLTLTCTASGFSLSSYDVSWVRQAPGKGLEYIGFIGSDGSAHYATWVKGRFTISKTSTTVDLKITSPTTEDTATYFCARDWNDYWAHDLWGPGTLVTVSS
VL: AQVLTQTTSPVSAAVGGTVTINCQASQIVTSKSALSWYQQKPGQPPRLLIYKASTLASGVPSRFSGSGSGTQFTLTISDLESDDAATYYCAGGYYNSGDLNPFGGGTEVVVKR
notes: also called Clone 7; CD137 clone 007

One assay addresses T1, Human CD137 shuffle 5 (amino acids …). The assay can be described thus: flow cytometry on transfected HEK293T-17 cells. The protocol:
(§1) 3×10⁶ HEK293T-17 cells were seeded in T75 culture flasks (Greiner Bio-One, cat. no. 658175) in 20 mL RPMI 1640 GlutaMAX medium containing 10% FCS (Biochrom, cat. no. S 0115). After O/N incubation, cells were transiently […] with expression vectors encoding the shuffle constructs or the wild boar, African elephant or human CD137 downstream of a constitutively active human elongation factor-1 alpha (EF-1 alpha) promotor using TransIT®-LT1 Transfection Reagent, Mirus Bio (VWR International, cat. no. 731-0029), according to the manufacturer's instructions. The next day, cells were harvested using 1.5 mL Accutase (Sigma Aldrich, cat. no. A6964) (incubation at 37° C. for 5 min.) and flow cytometry was performed, essentially as described in Example 4, to measure surface expression of the shuffle constructs and the human, African elephant and wild boar CD137 and to measure binding of the antibody clones to the different shuffle constructs. To measure cell surface expression of the constructs, transduced cells were incubated with 1 μg/mL goat polyclonal anti-human CD137 (R&D Systems, cat. no. AF838) in FACS buffer (D-PBS supplemented with 5 mM EDTA [Sigma Aldrich, cat. no. 03690] and 5% (v/v) fetal bovine serum [FBS, Biochrom, cat. no. S 0115]) (4° C., 20 min.), followed by incubation with APC-labeled anti-goat IgG (H+L) (R&D Systems, cat. no. F0108) (4° C., 20 min.). Binding of the different CD137 antibody clones to cells expressing the shuffle constructs was measured by incubation of the transduced cells with 1 μg/mL of the antibody clones, followed by APC-labeled AffiniPure F(ab′)2 Fragment (1:50 final dilution; Jackson, cat. no. 109-136-127).
A general note: In flow cytometry, cells or beads pass a laser one at a time.
Take B1: the binding result was “no binding (tested: 1 µg/mL)”.
Take B2: the binding result is on record as “no binding (tested: 1 µg/mL)”.
Still for that read-out and setting: the same measure for B3: “no binding (tested: 1 µg/mL)”; for B4: “no binding (tested: 1 µg/mL)”.

The target of another assay is T2, Human CD137 shuffle 4 (amino acids …). The experiment in a line: flow cytometry on transfected HEK293T-17 cells. The procedure:
as §1
B5: the binding result is “no binding (tested: 1 µg/mL)”.
On the same count and under the same terms, the same measure for B6: “no binding (tested: 1 µg/mL)”.
Turning to B7, the binding result is “no binding (tested: 1 µg/mL)”.

The target of another assay is T6, Human CD137 (TNR9_Human) (human, UniProt Q07011 24-255).
T6 construct: Full-length human CD137 expressed on HEK293T-17, NF-kB/293/GFP-Luc or K562 cells, or native on T cells; also called hCD137 wt; 4-1BB
The assay can be described thus: flow cytometry, HEK293-T17 cells transiently transfected with human CD137, antibody at 1 µg/mL, APC-labeled F(ab')2 secondary [cont.]. The protocol:
(§2) FIG. 4: Binding of CD137 antibody clones to CD137 shuffle constructs expressed on HEK293-T17 cells. HEK293-T17 cells were transfected with the CD137 shuffle constructs, and with human CD137 (hCD137 wt), African elephant of wild boar CD137, as indicated. Binding of the different CD137 antibody clones to these constructs expressed on HEK293-T17 cells was measured by flow cytometry. Staining with polyclonal anti-CD137 antibody is shown as a control.
as §1
Turning to B2, the binding result is “binds”.
The same measure, in the same setting: the result for B6 reads “binds”; that for B4, “binds”.
Consider B7, for which the binding result is recorded as “binds”.

Another assay deals with T6, Human CD137 (TNR9_Human). The experiment in a line: flow cytometry, HEK293-T17 cells transiently transfected with human CD137, antibody at 1 µg/mL, APC-labeled F(ab')2 secondary. The protocol:
as §2, §1
Target sequence in this assay (Q07011 24-255): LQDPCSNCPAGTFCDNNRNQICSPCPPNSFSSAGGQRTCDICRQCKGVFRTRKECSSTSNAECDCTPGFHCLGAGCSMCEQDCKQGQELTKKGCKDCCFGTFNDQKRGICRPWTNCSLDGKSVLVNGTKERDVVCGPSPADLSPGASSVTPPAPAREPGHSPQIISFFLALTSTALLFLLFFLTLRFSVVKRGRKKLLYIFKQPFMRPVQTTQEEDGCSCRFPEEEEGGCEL
As to B1, the binding result is recorded as “binds”.
Same read-out and setting: the result for B5 reads “binds”; that for B3, “binds”.

Another assay addresses T3, Human CD137 shuffle 3 (amino acids …). The experiment in a line: flow cytometry on transfected HEK293T-17 cells, 1 µg/mL antibody. The procedure:
as §1
Turning to B1, the binding result is recorded as “binds”.
In the case of B5, the binding result is on record as “binds”.
Consider B2, for which the binding result is “binds”.
B3: the binding result is given as “binds”.
In the case of B6, the binding result was “binds”.
Regarding B4, the binding result is on record as “binds”.
Consider B7, for which the binding result was “binds”.

The target of a further assay is T1, Human CD137 shuffle 5 (amino acids …). The description is as above. The protocol: as §1
For B5, the binding result is recorded as “binds”.
Turning to B6, the binding result is on record as “binds”.
The same measure, in the same setting: the result for B7 reads “binds”.

Another assay concerns the target T2, Human CD137 shuffle 4 (amino acids …). The assay is described as above. The protocol: as §1
B1: the binding result is given as “binds”.
The same measure, in the same setting: the result for B2 reads “binds”; that for B3, “binds”.
In the case of B4, the binding result is listed as “binds”.

For another assay, the target named is T4, Human CD137 shuffle 2 (amino acids …). The description is as above. The protocol: as §1
As to B1, the binding result is “binds”.
Still for that read-out and setting: the same measure for B5: “binds”; for B2: “binds”.
The same measure, in the same setting: the same measure for B3: “binds”; for B6: “binds”.
Consider B4, for which the binding result is “binds”.
Same read-out and setting: the result for B7 reads “binds”.

For another assay, the target named is T5, Human CD137 shuffle 1 (amino acids …). The description is as above. The protocol:
as §1
On to B1, for which the binding result is “binds”.
Turning to B5, the binding result is listed as “binds”.
Same read-out and setting: the result for B2 reads “binds”; that for B3, “binds”; that for B6, “binds”.
Still for that read-out and setting: the same measure for B4: “binds”.
Regarding B7, the binding result is “binds”.

The values are drawn from US20210317225A1 (Genmab, published 2021).
